The values below come from article PMC6923396.

Test [1] deals with p62-UBA K435Q (for NMR) (mouse) (UniProt Q64337). The test can be described thus: NMR dilution series (1H-15N HSQC peak volumes of monomer and dimer); 15N-labeled p62-UBA diluted from 500 to 20 µM; 298 K, pH 6.0, 20 mM sodium acetate, 100 mM NaCl; dimer to monomers.
The target of test [2] is p62-UBA K420Q (for NMR) (mouse) (UniProt Q64337). The description is as above.

In the case of “p62-UBA K435Q (for NMR) (from UniProt Q64337-1 391-437) (domain or fragment)”, the Kd in test [1] was determined as 15.5 µM.
In turn, “p62-UBA K420Q (for NMR) (from UniProt Q64337-1 391-436) (domain or fragment)” gave a Kd in test [2] of 41.2 µM. In other words, the double-digit micromolar range.
